These results are taken from the supplement of paper PMC11246515.

This data set in a line: total protein half-life in vivo (active degradation + dilution); higher = more stable protein.
The mark [1] stands for this setting: wild type E. coli NCM3722, growth: P-lim chemostat, doubling time 6 h.
[2] abbreviates: wild type E. coli NCM3722, growth: P-lim chemostat, doubling time 12 h.
Setting [3] is: E. coli NCM3722 delta-clpP delta-lon delta-hslV, growth: N-lim chemostat, doubling time 6 h.
Where [4] appears, read: E. coli NCM3722 delta-clpP, growth: N-lim chemostat, doubling time 6 h.
Where [5] appears, read: E. coli NCM3722 delta-hslV, growth: N-lim chemostat, doubling time 6 h.
The mark [6] stands for this setting: E. coli NCM3722 delta-lon, growth: N-lim chemostat, doubling time 6 h.
Setting [7] is: E. coli NCM3722 delta-smpB, growth: N-lim chemostat, doubling time 6 h.
Where [8] appears, read: wild type E. coli NCM3722, growth: C-lim chemostat, doubling time 6 h.
[9] abbreviates: wild type E. coli NCM3722, growth: C-lim chemostat, doubling time 12 h.
The mark [10] stands for this setting: wild type E. coli NCM3722, growth: N-lim chemostat, doubling time 6 h.
[11] abbreviates: wild type E. coli NCM3722, growth: N-lim chemostat, doubling time 12 h.
Where [12] appears, read: wild type E. coli NCM3722, growth: C-lim chemostat, doubling time 3 h.

± gives the standard deviation of the averaged measurements.

For the sequence “MHADTATRQHWMSVLAHSQPAELAARLNALNITADYEVIRAAETGLVQIQARMGGTGERFFAGDATLTRAAVRLTDGTLGYSWVQGRDKQHAERCALIDALMQQSRHFQNLSETLIAPLDADRMARIAARQAEVNASRVDFFTMVRGDNA”, the “total protein half-life in vivo” value is 1.11 ± 1.1 h under setting [1] and 1.64 ± 0.035 h under setting [2].
For “MSNPILSWRRVRALCVKETRQIVRDPSSWLIAVVIPLLLLFIFGYGINLDSSKLRVGILLEQRSEAALDFTHTMTGSPYIDATISDNRQELIAKMQAGKIRGLVVIPVDFAEQMERANATAPIQVITDGSEPNTANFVQGYVEGIWQIWQMQRAEDNGQTFEPLIDVQTRYWFNPAAISQHFIIPGAVTIIMTVIGAILTSLVVAREWERGTMEALLSTEITRTELLLCKLIPYYFLGMLAMLLCMLVSVFILGVPYRGSLLILFFISSLFLLSTLGMGLLISTITRNQFNAAQVALNAAFLPSIMLSGFIFQIDSMPAVIRAVTYIIPARYFVSTLQSLFLAGNIPVVLVVNVLFLIASAVMFIGLTWLKTKRRLD [P0AFQ2]”, the “total protein half-life in vivo” value came out at 6.67 ± 0.81 h under setting [3]; 5.62 h under setting [4]; 6.1 h under setting [5]; 5.56 h under setting [6]; 6.04 ± 0.15 h under setting [7]; 5.36 h under setting [8]. Further, the “total protein half-life in vivo” value runs as follows: under setting [9], 12.8 h; under setting [10], 6.36 ± 0.5 h; under setting [11], 12.5 ± 3.1 h; under setting [2], 12.6 ± 0.43 h.
Take “MMANIWWSLPLTLIVFFAARKLAARYKFPLLNPLLVAMVVIIPFLMLTGISYDSYFKGSEVLNDLLQPAVVALAYPLYEQLHQIRARWKSIITICFIGSVVAMVTGTSVALLMGASPEIAASILPKSVTTPIAMAVGGSIGGIPAISAVCVIFVGILGAVFGHTLLNAMRIRTKAARGLAMGTASHALGTARCAELDYQEGAFSSLALVLCGIITSLIAPFLFPIILAVMG [P0AD19]”: the “total protein half-life in vivo” value under setting [10] was 5.99 h.
Regarding “MIVTIVGWLVLFVFLPNLMIIGTSFLTRDDASFVKMVFTLDNYTRLLDPLYFEVLLHSLNMALIATLACLVLGYPFAWFLAKLPHKVRPLLLFLLIVPFWTNSLIRIYGLKIFLSTKGYLNEFLLWLGVIDTPIRIMFTPSAVIIGLVYILLPFMVMPLYSSIEKLDKPLLEAARDLGASKLQTFIRIIIPLTMPGIIAGCLLVMLPAMGLFYVSDLMGGAKNLLIGNVIKVQFLNIRDWPFGAATSITLTIVMGLMLLVYWRASRLLNKKVELE [P0AFK4]”, the “total protein half-life in vivo” value amounted to 4.04 ± 3 h under setting [3]; 5.57 ± 0.42 h under setting [7]; 5.93 h under setting [8]; 9.29 ± 5.5 h under setting [9]; 5.03 h under setting [10]; 2.09 h under setting [1]. Also, under setting [2], the “total protein half-life in vivo” value is 6.6 h.
For “MSQEYIEDKEVTLTKLSSGRRLLEALLILIVLFAVWLMAALLSFNPSDPSWSQTAWHEPIHNLGGMPGAWLADTLFFIFGVMAYTIPVIIVGGCWFAWRHQSSDEYIDYFAVSLRIIGVLALILTSCGLAAINADDIWYFASGGVIGSLLSTTLQPLLHSSGGTIALLCVWAAGLTLFTGWSWVTIAEKLGGWILNILTFASNRTRRDDTWVDEDEYEDDEEYEDENHGKQHESRRARILRGALARRKRLAEKFINPMGRQTDAALFSGKRMDDDEEITYTARGVAADPDDVLFSGNRATQPEYDEYDPLLNGAPITEPVAVAAAATTATQSWAAPVEPVTQTPPVASVDVPPAQPTVAWQPVPGPQTGEPVIAPAPEGYPQQSQYAQPAVQYNEPLQQPVQPQQPYYAPAAEQPAQQPYYAPAPEQPVAGNAWQAEEQQSTFAPQSTYQTEQTYQQPAAQEPLYQQPQPVEQQPVVEPEPVVEETKPARPPLYYFEEVEEKRAREREQLAAWYQPIPEPVKEPEPIKSSLKAPSVAAVPPVEAAAAVSPLASGVKKATLATGAAATVAAPVFSLANSGGPRPQVKEGIGPQLPRPKRIRVPTRRELASYGIKLPSQRAAEEKAREAQRNQYDSGDQYNDDEIDAMQQDELARQFAQTQQQRYGEQYQHDVPVNAEDADAAAEAELARQFAQTQQQRYSGEQPAGANPFSLDDFEFSPMKALLDDGPHEPLFTPIVEPVQQPQQPVAPQQQYQQPQQPVPPQPQYQQPQQPVAPQPQYQQPQQPVAPQQQYQQPQQPVAPQQQYQQPQQPVAPQPQDTLLHPLLMRNGDSRPLHKPTTPLPSLDLLTPPPSEVEPVDTFALEQMARLVEARLADFRIKADVVNYSPGPVITRFELNLAPGVKAARISNLSRDLARSLSTVAVRVVEVIPGKPYVGLELPNKKRQTVYLREVLDNAKFRDNPSPLTVVLGKDIAGEPVVADLAKMPHLLVAGTTGSGKSVGVNAMILSMLYKAQPEDVRFIMIDPKMLELSVYEGIPHLLTEVVTDMKDAANALRWCVNEMERRYKLMSALGVRNLAGYNEKIAEADRMMRPIPDPYWKPGDSMDAQHPVLKKEPYIVVLVDEFADLMMTVGKKVEELIARLAQKARAAGIHLVLATQRPSVDVITGLIKANIPTRIAFTVSSKIDSRTILDQAGAESLLGMGDMLYSGPNSTLPVRVHGAFVRDQEVHAVVQDWKARGRPQYVDGITSDSESEGGAGGFDGAEELDPLFDQAVQFVTEKRKASISGVQRQFRIGYNRAARIIEQMEAQGIVSEQGHNGNREVLAPPPFD”, the “total protein half-life in vivo” value reads like this: under setting [3], 3.531 ± 0.015 h; under setting [4], 2.17 ± 0.29 h; under setting [5], 1.2 ± 0.38 h; under setting [6], 1.48 ± 0.059 h; under setting [7], 0.895 ± 0.031 h; under setting [12], 0.891 ± 0.042 h. For the same sequence, the “total protein half-life in vivo” value came out at 1.36 ± 0.11 h under setting [8]; 1.76 ± 0.29 h under setting [9]; 1.39 ± 0.31 h under setting [10]; 1.57 ± 0.13 h under setting [11]; 1.48 ± 0.15 h under setting [1]; 2.78 ± 1 h under setting [2].
On to “MAYYSIGDVAERCGINPVTLRAWQRRYGLLKPQRSEGGHRLFDEEDIQRIEEIKRWISNGVPVGKVKALLETTSQDTEDDWSRLQEEMMSILRMANPAKLRARIISLGREYPVDQLINHVYLPVRQRLVLDHNTSRIMSSMFDGALIEYAATSLFEMRRKPGKEAILMAWNVEERARLWLEAWRLSLSGWHISVLADPIESPRPELFPTQTLIVWTGMAPTRRQNELLQHWGEQGYKVIFHAP”, for which the “total protein half-life in vivo” value is, setting by setting: under setting [3], 4.63 ± 0.56 h; under setting [4], 3.95 ± 2.5 h; under setting [5], 1.93 h; under setting [7], 1.79 ± 0.14 h; under setting [12], 2.13 ± 0.29 h; under setting [8], 3.02 ± 0.39 h. Moreover, the “total protein half-life in vivo” value is, setting by setting: under setting [9], 4.42 ± 0.35 h; under setting [10], 2 ± 0.16 h; under setting [11], 2.72 ± 0.041 h; under setting [1], 1.39 ± 0.094 h; under setting [2], 5.43 h.
